Key:
[1] = molecular target: Bacillus cereus VD045 GajB (Gabija protein B), untagged, co-expressed with GajA (Bacillus cereus VD045) (UniProt J8HQ06); experiment: crystal structure
[2] = molecular target: Bacillus phage Phi3T Gabija anti-defense 1 (Gad1) (Bacillus phage Phi3T); experiment: cryo-EM structure
[3] = molecular target: SUMO2-tagged Bacillus cereus VD045 GajAB complex (Bacillus cereus VD045) (UniProt J8H9C1); experiment: cryo-EM structure
Chain of SUMO2-tagged Bacillus cereus VD045 GajAB complex (Bacillus cereus VD045) (J8H9C1 2-578, chain 1 of 2): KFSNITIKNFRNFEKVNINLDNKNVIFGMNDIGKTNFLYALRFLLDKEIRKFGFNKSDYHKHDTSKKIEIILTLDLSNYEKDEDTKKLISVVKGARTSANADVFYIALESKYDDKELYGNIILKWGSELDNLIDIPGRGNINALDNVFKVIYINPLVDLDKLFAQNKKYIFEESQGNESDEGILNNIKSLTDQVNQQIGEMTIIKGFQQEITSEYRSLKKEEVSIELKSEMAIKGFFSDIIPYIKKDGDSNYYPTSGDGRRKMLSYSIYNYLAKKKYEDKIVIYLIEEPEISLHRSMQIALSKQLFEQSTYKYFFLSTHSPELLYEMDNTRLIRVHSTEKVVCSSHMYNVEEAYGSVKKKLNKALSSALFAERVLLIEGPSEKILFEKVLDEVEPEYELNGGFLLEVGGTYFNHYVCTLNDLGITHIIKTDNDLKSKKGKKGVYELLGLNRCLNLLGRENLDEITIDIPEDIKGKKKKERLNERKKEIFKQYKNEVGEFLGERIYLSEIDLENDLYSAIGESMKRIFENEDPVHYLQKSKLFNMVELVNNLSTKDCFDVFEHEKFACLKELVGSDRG
Chain of SUMO2-tagged Bacillus cereus VD045 GajAB complex (Bacillus cereus VD045) (J8HQ06 2-494, chain 2 of 2, further chain): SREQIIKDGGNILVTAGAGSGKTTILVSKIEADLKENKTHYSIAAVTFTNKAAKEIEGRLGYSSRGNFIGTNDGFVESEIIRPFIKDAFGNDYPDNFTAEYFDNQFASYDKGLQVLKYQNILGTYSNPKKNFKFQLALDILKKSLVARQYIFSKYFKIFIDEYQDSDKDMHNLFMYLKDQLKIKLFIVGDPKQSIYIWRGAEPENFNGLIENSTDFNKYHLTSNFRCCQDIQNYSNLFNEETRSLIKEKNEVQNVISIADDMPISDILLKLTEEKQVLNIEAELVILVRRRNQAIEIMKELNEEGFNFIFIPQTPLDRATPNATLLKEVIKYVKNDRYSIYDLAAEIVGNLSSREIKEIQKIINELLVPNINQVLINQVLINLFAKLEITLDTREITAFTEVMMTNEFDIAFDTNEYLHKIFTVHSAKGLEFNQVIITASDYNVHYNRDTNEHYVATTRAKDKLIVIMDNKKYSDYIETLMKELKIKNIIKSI

Chain of Bacillus phage Phi3T Gabija anti-defense 1 (Gad1) (natural protein) (A0A1P8CWZ3 whole entry): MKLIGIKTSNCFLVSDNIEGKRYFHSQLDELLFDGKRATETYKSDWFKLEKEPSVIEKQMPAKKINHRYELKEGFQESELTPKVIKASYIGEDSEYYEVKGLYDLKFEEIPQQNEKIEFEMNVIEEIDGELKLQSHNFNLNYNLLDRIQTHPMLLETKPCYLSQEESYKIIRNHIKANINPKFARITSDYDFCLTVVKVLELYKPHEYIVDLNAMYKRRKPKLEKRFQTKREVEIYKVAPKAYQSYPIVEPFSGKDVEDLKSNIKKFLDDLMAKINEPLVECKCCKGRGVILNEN

Substance	stoichiometry N [1]	stoichiometry N [2]	stoichiometry N (Gad1 per 4:4 GajAB assembly) [3]
Bacillus cereus VD045 GajB (Gabija protein B), untagged, co-expressed with GajA (from UniProt J8HQ06 2-494) (enzyme)	2	–	–
Bacillus phage Phi3T Gabija anti-defense 1 (Gad1) (natural protein)	–	8	8

Reference: doi:10.1101/2023.05.01.538945
